Results taken from US7799901B2, “Modulators of the function of FAS receptors and other proteins” (Yeda Research and Development Co. Ltd., priority 1995, dated 2010).

T1: MORT1DD (130-245) (Homo sapiens, UniProt Q13158)
T1 construct: 130-245 MORT-1; expressed in transfected cells
T1 sequence (Q13158 82-197): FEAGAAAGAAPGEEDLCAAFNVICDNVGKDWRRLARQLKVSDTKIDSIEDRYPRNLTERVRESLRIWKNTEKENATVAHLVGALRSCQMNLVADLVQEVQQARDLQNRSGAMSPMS

B1: MACHα1 (C360S): MACHα1 mutant in which the catalytic cysteine Cys360 is replaced by Ser (protein)
chain: MDFSRNLYDIGEQLDSEDLASLKFLSLDYIPQRKQEPIKDALMLFQRLQEKRMLEESNLSFLKELLFRINRLDLLITYLNTRKEEMERELQTPGRAQISAYRVMLYQISEEVSRSELRSFKFLLQEEISKCKLDDDMNLLDIFIEMEKRVILGEGKLDILKRVCAQINKSLLKIINDYEEFSKERSSSLEGSPDEFSNGEELCGVMTISDSPREQDSESQTLDKVYQMKSKPRGYCLIINNHNFAKAREKVPKLHSIRDRNGTHLDAGALTTTFEELHFEIKPHDDCTVEQIYEILKIYQLMDHSNMDCFICCILSHGDKGIIYGTDGQEAPIYELTSQFTGLKCPSLAGKPKVFFIQASQGDNYQKGIPVETDSEEQPYLEMDLSSPQTRYIPDEADFLLGMATVNNCVSYRNPAEGTWYIQSLCQSLRERCPRGDDILTILTEVNYEVSNKDDKKNMGKQMPQPTFTLRKKLVFPSD
B2: MACHβ1: MACH isoform, cDNA SEQ ID NO: 4, amino acid SEQ ID NO: 5; lacks the CED3/ICE homology region (protein)
chain: MDFSRNLYDIGEQLDSEDLASLKFLSLDYIPQRKQEPIKDALMLFQRLQEKRMLEESNLSFLKELLFRINRLDLLITYLNTRKEEMERELQTPGRAQISAYRVMLYQISEEVSRSELRSFKFLLQEEISKCKLDDDMNLLDIFIEMEKRVILGEGKLDILKRVCAQINKSLLKIINDYEEFSKERSSSLEGSPDEFSNDFGQSLPNEKQTSGILSDHQQSQFCKSTGESAQTSQH

How the values were obtained:
[1] = system: p55-R-induced cytotoxicity in 293-EBNA cells; assay: Death of 293-EBNA cells induced by over-expression of p55-R; type: cell-based, human; conditions: co-transfection
Method: In brief, 293-EBNA cells, MCF7 human breast carcinoma cells and HeLa HtTA-1 cells were grown in Dulbecco's modified Eagle's minimal essential medium supplemented with 10% fetal calf serum, nonessential amino acids, 100 U/ml penicillin and 100 μg/ml streptomycin. Cell tissue culture dishes (5×10^5 293-EBNA cells, 3×10^5 s MCF7 cells or 3×10^5 HeLa cells in 6-cm dishes) were transiently transfected, using the calcium phosphate precipitation method, with the cDNAs of the indicated proteins together with the β-galactosidase expression vector. In the experiments presented in FIGS. 14A-D and 15, each dish was transfected with 3.5 μg of the indicated MACH construct and 1.5 μg of pSV-β-gal. In the experiments presented in FIGS. 16A-D and 17-19, each dish was transfected with 2.5 μg of the indicated MACH or MORT1 construct (or, as control, empty vector) and 1.5 μg of pSV-β-gal. The cells were rinsed 6 to 10 h after transfection. The 293-EBNA and MCF7 cells were incubated for a further 18 h without additional treatment. […] The extent of cell death at the end of the incubation periods was assessed by determination of β-galactosidase expression, as described by Kumar et al, 1994. […]
In particular, FIGS. 16A-D show morphology of 293-EBNA cells in which cell death was induced by transient expression of a chimera comprised of the extracellular domain of the p55-R (amino acids 1-168) fused to the transmembrane and intracellular domains of Fas/APO1 (amino acids 153-319) (p55-Fas chimera) (FIGS. 16A and 16B), or by expression of the p55-R (FIGS. 16C and 16D), and of cells that were protected from these cytotoxic effects by their simultaneous transfection with MACHα1 (C360S) (FIGS. 16B and 16D). […] FIG. 17 illustrates the quantification of death induced in 293-EBNA cells by their transfection with p55-Fas chimera or with p55-R, together with an empty vector, a MORT1 deletion mutant lacking the MACH-binding region (MORT1 (92-208)), or MACHα molecules containing a nonfunctional CED3/ICE region. […] Data are from at least two independent experiments and are expressed as in FIGS. 14A-F and 15.

MORT1DD (130-245) = target: T1, MORT1DD (130-245); assay: Two-hybrid β-galactosidase expression filter assay in SFY526 yeast, DNA-binding domain hybrid MORT1DD (130-245)
Text: To isolate proteins interacting with the intracellular domain of the FAS-R, the yeast two-hybrid system was used (Fields and Song, 1989). […] In this system, the genes for the candidate interacting proteins are cloned into separate expression vectors. In one expression vector, the sequence of the one candidate protein is cloned in phase with the sequence of the GAL4 DNA-binding domain to generate a hybrid protein with the GAL4 DNA-binding-domain, and in the other vector, the sequence of the second candidate protein is cloned in phase with the sequence of the GAL4 activation domain to generate a hybrid protein with the GAL4-activation domain. The two hybrid vectors are then co-transformed into a yeast host strain having a lacZ or HIS3 reporter gene under the control of upstream GAL4 binding sites. […]
The yeast two-hybrid test was further applied to evaluate the specificity of binding of MACH to MORT-1, in particular, to define the region in MORT-1 to which MACH binds, as well as to determine which of the MACH ORFs interacts with MORT-1, the procedures being as set forth herein above in Examples 1 and 2. Briefly, various MORT-1 and MACH constructs were prepared for testing the interaction of the proteins encoded by the Gal4 DNA-binding domain and activation domain constructs within transfected SFY526 yeast cells as assessed by the β-galactosidase expression filter assay. […]

| Molecule | protection against p55-R-induced cytotoxicity [1] | development of color (interaction with DNA-binding domain hybrid) (MORT1DD (130-245)) |
| --- | --- | --- |
| B1 | protected | – |
| B2 | – | −−− (“−−−” indicates the lack of development of color within 24 hrs. of the assay) |
